Results on five molecules are retold here after patent US20030119145A1.

Where “and” joins values, the source holds several entries; their conditions need not be identical. Identical values can stand only once.

Data set [1] has as its target cytochrome c. As to the kind of experiment: cell-based or functional assay.
The target in data set [2] is CYP52A5A, omega-hydroxylating cytochrome P450 of Candida tropicalis (Candida tropicalis). Description: cell-based or functional assay.
For data set [3], the target named is cytochrome c.
For data set [4], the target named is CYP52A5A, omega-hydroxylating cytochrome P450 of Candida tropicalis.

For “truncated (soluble) CPRA from Candida tropicalis, produced in Sf9 insect cells (from UniProt P37201 33-680) (enzyme)”, in the data set with cytochrome c [1], the Sp. Act. (reduction of cytochrome c), soluble fraction of Sf9 cells expressing truncated (soluble) CPRA is 8.42 µmol/min/mg and 4.4 µmol/min/mg; the specific activity (reduction of cytochrome c) relative to microsomes of cells expressing the unmodified CPR came to 20 fold. In addition, in data set [2], the Enhancement (%) of hydroxylation of C14 myristic acid, 4 µl sCPR added is 2.4%; the Enhancement (%) of hydroxylation of C14 myristic acid, 8 µl sCPR added was determined as 3.4%; the Enhancement (%) of hydroxylation of C14 myristic acid, 16 µl sCPR added worked out at 3.4%; the Enhancement (%) of hydroxylation of C14 myristic acid, 32 µl sCPR added stood at 8.1%. In data set [2], the Enhancement (%) of hydroxylation of C14 myristic acid, 64 µl sCPR added was 6.9%; the enhancement of formation of omega-hydroxylauric acid by CYP52A5A on addition of soluble CPR (TLC autoradiogram) amounted to 4.4 fold; the increase of omega-hydroxylauric acid formation on addition of soluble CPR in the presence of membrane associated CPR was 6%; the omega-hydroxylauric acid (nmol), CYP52A5A microsomes with soluble CPR added worked out at 0.07 nmol. Further, in data set [2], the omega-hydroxylauric acid (nmol), CYP52A5A/CPRA microsomes with soluble CPR added amounted to 0.115 nmol.

B1: polyhistidine tagged soluble CPRA from Candida tropicalis, produced in E. coli (pET15b) (protein)
chain: MHHHHHHSSGLVPRGSHMDTGFLNTDSGSNSRDVLLTLKKNNKNTLLLFGSQTGTAEDYANKLSRELHSRFGLKTMVADFADYDWDNFGDITEDILVFFIVATYGEGEPTDNADEFHTWLTEEADTLSTLKYTVFGLGNSTYEFFNAIGRKFDRLLSEKGGDRFAEYAEGDDGTGTLDEDFMAWKDNVFDALKNDLNFEEKELKYEPNVKLTERDDLSAADSQVSLGEPNKKYINSEGIDLTKGPFDHTHPYLARITETRELFSSKDRHCIHVEFDISESNLKYTTGDHLAIWPSNSDENIKQFAKCFGLEDKLDTVIELKALDSTYTIPFPTPITYGAVIRHHLEISGPVSRQFFLSIAGFAPDEETKKAFTRLGGDKQEFAAKVTRRKFNIADALLYSSNNAPWSDVPFEFLIENVPHLTPRYYSISSSSLSEKQLINVTAVVEAEEEADGRPVTGVVTNLLKNVEIVQNKTGEKPLVHYDLSGPRGKFNKFKLPVHVRRSNFKLPKNSTTPVILIGPGTGVAPLRGFVRERVQQVKNGVNVGKTLLFYGCRNSNEDFLYKQEWAEYASVLGENFEMFNAFSRQDPSKKVYVQDKILENSQLVHELLTEGAIIYVCGDASRMARDVQTTISKIVAKSREISEDKAAELVKSWKVQNRYQEDVW
Consider B1, for which, in the data set with cytochrome c [3], the Sp. Act. (reduction of cytochrome c), E. coli extract was 5.3 µmol/min/mg and the Sp. Act. (reduction of cytochrome c), concentrated & dialyzed purified protein came to 420 µmol/min/mg.

B2: full-length, membrane associated CPRA (NADPH-cytochrome P450 reductase) from Candida tropicalis (protein)
chain: MALDKLDLYVIITLVVAVAAYFAKNQFLDQPQDTGFLNTDSGSNSRDVLLTLKKNNKNTLLLFGSQTGTAEDYANKLSRELHSRFGLKTMVADFADYDWDNFGDITEDILVFFIVATYGEGEPTDNADEFHTWLTEEADTLSTLKYTVFGLGNSTYEFFNAIGRKFDRLLSEKGGDRFAEYAEGDDGTGTLDEDFMAWKDNVFDALKNDLNFEEKELKYEPNVKLTERDDLSAADSQVSLGEPNKKYINSEGIDLTKGPFDHTHPYLARITETRELFSSKDRHCIHVEFDISESNLKYTTGDHLAIWPSNSDENIKQFAKCFGLEDKLDTVIELKALDSTYTIPFPTPITYGAVIRHHLEISGPVSRQFFLSIAGFAPDEETKKAFTRLGGDKQEFAAKVTRRKFNIADALLYSSNNAPWSDVPFEFLIENVPHLTPRYYSISSSSLSEKQLINVTAVVEAEEEADGRPVTGVVTNLLKNVEIVQNKTGEKPLVHYDLSGPRGKFNKFKLPVHVRRSNFKLPKNSTTPVILIGPGTGVAPLRGFVRERVQQVKNGVNVGKTLLFYGCRNSNEDFLYKQEWAEYASVLGENFEMFNAFSRQDPSKKVYVQDKILENSQLVHELLTEGAIIYVCGDASRMARDVQTTISKIVAKSREISEDKAAELVKSWKVQNRYQEDVW
In turn, B2 displayed a net counts in product (omega-hydroxylation of [14C]-lauric acid), CYP52A5A/CPRA microsomes without soluble CPR in data set [4] of 12400 net counts.

B3: soluble CPRA from Candida tropicalis produced in E. coli (pProEX-1), his-tag removed with TEV protease (protein)
chain: DTGFLNTDSGSNSRDVLLTLKKNNKNTLLLFGSQTGTAEDYANKLSRELHSRFGLKTMVADFADYDWDNFGDITEDILVFFIVATYGEGEPTDNADEFHTWLTEEADTLSTLKYTVFGLGNSTYEFFNAIGRKFDRLLSEKGGDRFAEYAEGDDGTGTLDEDFMAWKDNVFDALKNDLNFEEKELKYEPNVKLTERDDLSAADSQVSLGEPNKKYINSEGIDLTKGPFDHTHPYLARITETRELFSSKDRHCIHVEFDISESNLKYTTGDHLAIWPSNSDENIKQFAKCFGLEDKLDTVIELKALDSTYTIPFPTPITYGAVIRHHLEISGPVSRQFFLSIAGFAPDEETKKAFTRLGGDKQEFAAKVTRRKFNIADALLYSSNNAPWSDVPFEFLIENVPHLTPRYYSISSSSLSEKQLINVTAVVEAEEEADGRPVTGVVTNLLKNVEIVQNKTGEKPLVHYDLSGPRGKFNKFKLPVHVRRSNFKLPKNSTTPVILIGPGTGVAPLRGFVRERVQQVKNGVNVGKTLLFYGCRNSNEDFLYKQEWAEYASVLGENFEMFNAFSRQDPSKKVYVQDKILENSQLVHELLTEGAIIYVCGDASRMARDVQTTISKIVAKSREISEDKAAELVKSWKVQNRYQEDVW
For B3, the “specific activity in reduction of cytochrome c” value with cytochrome c [3] worked out at 198 U/mg.

B4: truncated (soluble) CPRA from Candida tropicalis, produced in Sf9 insect cells (protein)
chain: MDTGFLNTDSGSNSRDVLLTLKKNNKNTLLLFGSQTGTAEDYANKLSRELHSRFGLKTMVADFADYDWDNFGDITEDILVFFIVATYGEGEPTDNADEFHTWLTEEADTLSTLKYTVFGLGNSTYEFFNAIGRKFDRLLSEKGGDRFAEYAEGDDGTGTLDEDFMAWKDNVFDALKNDLNFEEKELKYEPNVKLTERDDLSAADSQVSLGEPNKKYINSEGIDLTKGPFDHTHPYLARITETRELFSSKDRHCIHVEFDISESNLKYTTGDHLAIWPSNSDENIKQFAKCFGLEDKLDTVIELKALDSTYTIPFPTPITYGAVIRHHLEISGPVSRQFFLSIAGFAPDEETKKAFTRLGGDKQEFAAKVTRRKFNIADALLYSSNNAPWSDVPFEFLIENVPHLTPRYYSISSSSLSEKQLINVTAVVEAEEEADGRPVTGVVTNLLKNVEIVQNKTGEKPLVHYDLSGPRGKFNKFKLPVHVRRSNFKLPKNSTTPVILIGPGTGVAPLRGFVRERVQQVKNGVNVGKTLLFYGCRNSNEDFLYKQEWAEYASVLGENFEMFNAFSRQDPSKKVYVQDKILENSQLVHELLTEGAIIYVCGDASRMARDVQTTISKIVAKSREISEDKAAELVKSWKVQNRYQEDVW
In the case of B4, in data set [4], the Conversion (%) of C14 myristic acid, 4 µl sCPR added to CYP52A5A microsomes was determined as 12.4%; the Conversion (%) of C14 myristic acid, 8 µl sCPR added to CYP52A5A microsomes turned out to be 13.4%; the Conversion (%) of C14 myristic acid, 16 µl sCPR added to CYP52A5A microsomes came out at 13.4%; the Conversion (%) of C14 myristic acid, 32 µl sCPR added to CYP52A5A microsomes stood at 18.1%. In addition, in data set [4], the Conversion (%) of C14 myristic acid, 64 µl sCPR added to CYP52A5A microsomes came to 16.9%; the “hydroxylation activity on addition of soluble CPR” value is “increased the hydroxylation activity approximately 5-fold”; the net counts in product (omega-hydroxylation of [14C]-lauric acid), CYP52A5A microsomes with soluble CPR added was determined as 7930 net counts; the net counts in product (omega-hydroxylation of [14C]-lauric acid), CYP52A5A/CPRA microsomes with soluble CPR added is 13200 net counts.
